In patent US20230203188A1 (published 2023):

T1: full-length cyno SIRPβ1v3 (XP_005568593, clone 1HC6), on CHO cells (cynomolgus monkey, UniProt A0A2K5VYQ9)
T1 construct: whole, on cells; also called Cynomolgus SIRPβ1v3 XP-005568593 Clone 1HC6
T1 sequence: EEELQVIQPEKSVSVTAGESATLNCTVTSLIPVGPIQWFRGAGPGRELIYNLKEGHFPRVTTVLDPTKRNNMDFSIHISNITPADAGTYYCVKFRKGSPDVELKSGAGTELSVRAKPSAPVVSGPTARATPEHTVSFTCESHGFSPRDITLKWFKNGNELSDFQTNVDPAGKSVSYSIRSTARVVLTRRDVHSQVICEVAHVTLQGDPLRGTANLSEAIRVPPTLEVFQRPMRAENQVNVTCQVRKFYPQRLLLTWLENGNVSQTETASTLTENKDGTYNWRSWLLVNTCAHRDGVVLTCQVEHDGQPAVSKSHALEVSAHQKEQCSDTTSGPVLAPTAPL

B1: KWAR23 (antibody, V domains shown)
VH: EVQLQQSGAELVKPGASVKLSCTASGFNIKDYYIHWVQQRTEQGLEWIGRIDPEDGETKYAPKFQDKATITADTSSNTAYLHLSSLTSEDTAVYYCARWGAYWGQGTLVTVSS
VL: QIVLTQSPAIMSASPGEKVTLTCSASSSVSSSYLYWYQQKPGSSPKLWIYSTSNLASGVPARFSGSGSGTSYSLTISSMEAEDAASYFCHQWSSYPRTFGAGTKLELK
B2: Antibody A (antibody, human IgG1, kappa, L234A L235A)
heavy: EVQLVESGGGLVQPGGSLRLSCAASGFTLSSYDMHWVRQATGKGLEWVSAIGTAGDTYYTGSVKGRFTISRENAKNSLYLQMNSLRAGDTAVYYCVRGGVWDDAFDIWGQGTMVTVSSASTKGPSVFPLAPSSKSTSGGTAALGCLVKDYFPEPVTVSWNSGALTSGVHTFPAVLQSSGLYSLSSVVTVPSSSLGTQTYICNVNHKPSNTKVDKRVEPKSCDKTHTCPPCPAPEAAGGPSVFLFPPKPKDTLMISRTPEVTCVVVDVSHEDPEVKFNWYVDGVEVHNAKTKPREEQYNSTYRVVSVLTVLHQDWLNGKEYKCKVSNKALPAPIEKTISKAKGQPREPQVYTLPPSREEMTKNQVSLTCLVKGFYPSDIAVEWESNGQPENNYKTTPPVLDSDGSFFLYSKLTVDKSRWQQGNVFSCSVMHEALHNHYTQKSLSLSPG
light: DIQMTQSPSSLSASVGDRVTITCRASQDINNYLAWFQQKPGKAPKSLIYTASSLHSGVPSKFSGSGSGTDFTLTISSLQPEDFATYYCQQYVSYPYTFGQGTKLEIKRTVAAPSVFIFPPSDEQLKSGTASVVCLLNNFYPREAKVQWKVDNALQSGNSQESVTEQDSKDSTYSLSSTLTLSKADYEKHKVYACEVTHQGLSSPVTKSFNRGEC
notes: human IgG1 (LALA) backbone, kappa
B3: Antibody A10 (antibody, human IgG1, kappa, L234A L235A)
heavy: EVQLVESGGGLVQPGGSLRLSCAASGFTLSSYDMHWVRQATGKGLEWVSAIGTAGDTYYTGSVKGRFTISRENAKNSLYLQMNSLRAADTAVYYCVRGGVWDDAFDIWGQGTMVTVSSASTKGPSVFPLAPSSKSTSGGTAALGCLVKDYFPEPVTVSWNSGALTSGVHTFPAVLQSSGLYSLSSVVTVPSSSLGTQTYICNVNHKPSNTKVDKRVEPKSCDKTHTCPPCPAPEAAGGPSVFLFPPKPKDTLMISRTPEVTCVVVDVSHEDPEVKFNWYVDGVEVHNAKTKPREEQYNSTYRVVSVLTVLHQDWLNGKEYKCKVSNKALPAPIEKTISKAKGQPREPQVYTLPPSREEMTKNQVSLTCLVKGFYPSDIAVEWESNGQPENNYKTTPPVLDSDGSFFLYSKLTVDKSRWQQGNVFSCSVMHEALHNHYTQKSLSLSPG
light: B2 light
notes: engineered variant of Antibody A; IgG1 (LALA)

Columns and labels:
[1] = target: T1, full-length cyno SIRPβ1v3 …; assay: flow cytometry on CHO cells expressing the target
Description: (§1) Antibody binding to cells expressing full-length cynomolgus SIRPβ1 (XP_005568598) and SIRPβ1v3 (XP_005568593) is evaluated by flow cytometry. SIRPβ1- or SIRPβ31V3-expressing CHO cells are blocked with donkey IgG and incubated on ice with increasing concentrations of antibodies for 60 minutes, washed and stained with AF647-conjugated donkey F(ab′)₂ anti-human IgG secondary reagent. Cells are washed, fixed, and analyzed by flow cytometry. Median fluorescent intensity is determined and used as a measure of antibody binding.

[2] = target: T2, full-length cyno SIRPβ1 (XP_005568598, clone PA2), on CHO cells (cynomolgus monkey); assay: flow cytometry on CHO cells expressing the target
T2 construct: whole, on cells; also called Cynomolgus SIRPβ1 XP_005568598 Clone PA2
Description: as §1

Row | Binder | EC50 [1] | EC50 [2]
1 | B1 | 0.4 nM | –
2 | B2 | – | 0.7 nM
3 | B3 | – | 0.6 nM
